Data as given in patent US20230374148A1, “BINDING MOLECULES THAT MULTIMERISE CD45” (UCB BIOPHARMA SRL, priority 2020, published 2023).

B1: 4133-6294 BYbe: anti-CD45 BYbe (Fab-scFv): 4133 Fab HC-G4S linker-6294 scFv heavy chain paired with 4133 light chain (antibody)
heavy: QEQLVESGGGLVQPEGSLTLTCTASGFSFSGNYYMCWVRQAPGKGLEWIGCLYTGSSGSTYYASWAKGRFTISKTSSTTVTLQMTSLTAADTATYFCARDLGYEIDGYGGLWGQGTLVTVSSGQPKAPSVFPLAPCCGDTPSSTVTLGCLVKGYLPEPVTVTWNSGTLTNGVRTFPSVRQSSGLYSLSSVVSVTSSSQPVTCNVAHPATNTKVDKTVAPSTCSKPGGGGSGGGGSEVQLVESGAELARPGASVKMSCKASGYTFTSYTMHWVKQRPGQCLEWIGYINPSSGYTEYNQKFKDKTTLTADKSSSTAYLQLSSLTSEDSAVYYCARVGDGFYPSWLAYWGQGTLVTVSSGGGGSGGGGSGGGGSGGGGSDIQMTQSPKFLLVSAGDRVTITCKASQSVRNDVAWYQQKPGQSPKLLIFYASKRYTGVPDRFTGSGYGTDFTFTISTVQAEDLAVYFCQQDYSSPTTFGCGTKLEIK
light: AQVLTQTPSPVSAVVGGTVSISCQASQSVYNNNNLSWYQQKPGQPPKLLIYDASKLASGVPSRFKGSGSGTQFTLTISGVQCDDAATYYCLGGYYSSGWYFAFGGGTKVVVKRTPVAPTVLIFPPAADQVATGTVTIVCVANKYFPDVTVTWEVDGTTQTTGIENSKTPQNSADCTYNLSSTLTLTSTQYNSHKEYTCKVTQGTTSVVQSFNRGDC

Test system: Human whole blood
Experiment: Cytokine release in whole blood at 24 hrs, MSD assay
Assay type: cell-based
Experimental: Human whole blood (Lithium heparin tubes) was taken from one donor (HTA #031219-06) at UCB Pharma Slough, UK according to approved ethical sample collection protocol.
In a Greiner 96-well non-binding microplate, Fab-X and Fab-Y combination 6294-X/4133-Y was added to PBS to give a Fab-KD-Fab concentration of 2000 nM. Similarly, stocks of 4133-6294 BYbe and NegCtrl BYbe were prepared in PBS at 2000 nM. The microplate was incubated for 1 hr at 37° C., 5% CO2. Following the incubation, Fab-KD-Fab and BYbe reagents were then serially diluted in PBS 1 in 5, seven times to produce to form an 8-point dose curve.
12.5 μl of Fab-KD-Fab or BYbe dilution was transferred into Corning Costar 96-well, cell culture treated, U-shaped-bottom microplate (cat no. 07-200-95) and 237.5 μl of whole blood added to each well. Final well concentrations of Fab-KD-Fab or BYbes were 100-0.00128 nM. […]
Measurement of cytokines was carried out using the V-PLEX Human Proinflammatory Panel I (4-Plex) (IFN-γ, IL-1β, IL-6, TNF-α, cat no. K15052D, Meso Scale Discovery) according to manufacturer's instructions. […] The plates were washed as before, and 150 μl of read buffer (diluted 1 in 2 in dH2O) was added to each well. The plates were then analysed on a SECTOR Imager 6000 (Meso Scale Discovery).

Molecule | levels of IL-1β (Campath 10 μg/ml, other reagents 100-0.00128 nM) | induction of inflammatory cytokines (IFN-γ, IL-6, TNF-α) (100-0.00128 nM, compared with PBS- and NegCtrl BYbe-treated wells)
Campath: anti-CD52, clinical grade, indicated by FDA for B-cell Chronic Lymphocytic Leukaemia; positive control [reference compound] | marked level | –
B1 | – | little or no induction
